Measured values reported in US11306156.

What was measured:
[1] = target: D3H44 light chain Q124E_Q160E_T180E with N-terminal HA or FLAG tag; assay: LCCA (SPR tag readout), L1:L2 DNA 1:3, normalized to 1:1; competing light chain m17
[2] = target: D3H44 light chain F116C_Q124R_T178R with N-terminal HA or FLAG tag; assay: LCCA (SPR tag readout), L1:L2 DNA 1:3, normalized to 1:1; competing light chain m18
[3] = target: D3H44 light chain Q124E_T180E with N-terminal HA or FLAG tag; assay: LCCA (SPR tag readout), L1:L2 DNA 1:9, normalized to 1:1; competing light chain m12
[4] = target: D3H44 light chain Q124E_Q160E_T180E with N-terminal HA or FLAG tag; assay: LCCA (SPR tag readout), L1:L2 DNA 1:9, normalized to 1:1; competing light chain m15
[5] = target: D3H44 light chain Q124E_Q160E_T180E with N-terminal HA or FLAG tag; assay: LCCA (SPR tag readout), L1:L2 DNA 1:9, normalized to 1:1; competing light chain m9
[6] = target: D3H44 light chain Q124R_T178K with N-terminal HA or FLAG tag; assay: LCCA (SPR tag readout), L1:L2 DNA 1:3, normalized to 1:1; competing light chain m13
[7] = target: D3H44 light chain Q124K_T178R with N-terminal HA or FLAG tag; assay: as above
[8] = target: D3H44 light chain Q124R_Q160K_T178R with N-terminal HA or FLAG tag; assay: as above
[9] = target: D3H44 light chain Q124R_T178R with N-terminal HA or FLAG tag; assay: as above
[10] = target: D3H44 light chain Q124K_T178R with N-terminal HA or FLAG tag; assay: LCCA (SPR tag readout), L1:L2 DNA 1:9, normalized to 1:1; competing light chain m13
[11] = target: D3H44 light chain Q124E_Q160E_T180E with N-terminal HA or FLAG tag; assay: LCCA (SPR tag readout), L1:L2 DNA 1:3, normalized to 1:1; competing light chain m15
[12] = target: D3H44 light chain Q124E_T180E with N-terminal HA or FLAG tag; assay: as above
[13] = target: D3H44 light chain Q124R_T178K with N-terminal HA or FLAG tag; assay: LCCA (SPR tag readout), L1:L2 DNA 1:9, normalized to 1:1; competing light chain m18
[14] = target: D3H44 light chain Q124R_T178R with N-terminal HA or FLAG tag; assay: as above
[15] = target: D3H44 light chain Q124E_T180E with N-terminal HA or FLAG tag; assay: LCCA (SPR tag readout), L1:L2 DNA 1:3, normalized to 1:1; competing light chain m14
[16] = target: D3H44 light chain Q124R_T178K with N-terminal HA or FLAG tag; assay: LCCA (SPR tag readout), L1:L2 DNA 1:3, normalized to 1:1; competing light chain m18
[17] = target: D3H44 light chain Q124R_T178R with N-terminal HA or FLAG tag; assay: as above
[18] = target: D3H44 light chain Q124E_Q160E_T180E with N-terminal HA or FLAG tag; assay: LCCA (SPR tag readout), L1:L2 DNA 1:3, normalized to 1:1; competing light chain m9
[19] = target: D3H44 light chain Q124E_T180E with N-terminal HA or FLAG tag; assay: as above
[20] = target: D3H44 light chain Q124E_T180E with N-terminal HA or FLAG tag; assay: LCCA (SPR tag readout), L1:L2 DNA 1:3, normalized to 1:1; competing light chain m12
[21] = target: D3H44 light chain Q124R_T178R with N-terminal HA or FLAG tag; assay: LCCA (SPR tag readout), L1:L2 DNA 1:3, normalized to 1:1; competing light chain m16
[22] = target: D3H44 light chain Q124E_V133D with N-terminal HA or FLAG tag; assay: LCCA (SPR tag readout), L1:L2 DNA 1:9, normalized to 1:1; competing light chain m9
[23] = target: D3H44 light chain Q124R_T178R with N-terminal HA or FLAG tag; assay: LCCA (SPR tag readout), L1:L2 DNA 1:9, normalized to 1:1; competing light chain m16
[24] = target: D3H44 light chain Q124E_V133D with N-terminal HA or FLAG tag; assay: LCCA (SPR tag readout), L1:L2 DNA 1:3, normalized to 1:1; competing light chain m9
[25] = target: D3H44 light chain Q124E_Q160E_T180E with N-terminal HA or FLAG tag; assay: LCCA (SPR tag readout), L1:L2 DNA 1:9, normalized to 1:1; competing light chain m12
[26] = target: D3H44 light chain Q124E_T178E_T180E with N-terminal HA or FLAG tag; assay: LCCA (SPR tag readout), L1:L2 DNA 1:9, normalized to 1:1; competing light chain m9
[27] = target: D3H44 light chain Q124E_T180E with N-terminal HA or FLAG tag; assay: LCCA (SPR tag readout), L1:L2 DNA 1:3, normalized to 1:1; competing light chain m19
[28] = target: D3H44 light chain T178R with N-terminal HA or FLAG tag; assay: LCCA (SPR tag readout), L1:L2 DNA 1:3, normalized to 1:1; competing light chain m13
[29] = target: D3H44 light chain Q124R_T178R with N-terminal HA or FLAG tag; assay: LCCA (SPR tag readout), L1:L2 DNA 1:9, normalized to 1:1; competing light chain m10
[30] = target: D3H44 light chain Q124K_T178R with N-terminal HA or FLAG tag; assay: LCCA (SPR tag readout), L1:L2 DNA 1:9, normalized to 1:1; competing light chain m18
[31] = target: D3H44 light chain Q124R_T178R with N-terminal HA or FLAG tag; assay: LCCA (SPR tag readout), L1:L2 DNA 1:3, normalized to 1:1; competing light chain m10
[32] = target: D3H44 light chain Q124K_T178R with N-terminal HA or FLAG tag; assay: LCCA (SPR tag readout), L1:L2 DNA 1:3, normalized to 1:1; competing light chain m18
[33] = target: D3H44 light chain Q124E_T178E_T180E with N-terminal HA or FLAG tag; assay: LCCA (SPR tag readout), L1:L2 DNA 1:3, normalized to 1:1; competing light chain m9
[34] = target: D3H44 light chain Q124E_Q160E_T180E with N-terminal HA or FLAG tag; assay: LCCA (SPR tag readout), L1:L2 DNA 1:3, normalized to 1:1; competing light chain m12

D3H44 Fab heavy chain A139C_L143E_K145T_Q179E with C-terminal ABD2-His6 tag
H1L1:H1L2 normalized median ratio [1]: 11%
H1L1:H1L2 normalized median ratio [2]: 89%
H1L1:H1L2 normalized median scalar value ln(r1/f1) [2]: 2.08

D3H44 Fab heavy chain L143E_K145T_Q179D with C-terminal ABD2-His6 tag
H1L1:H1L2 normalized median ratio [3]: 11%
H1L1:H1L2 normalized median ratio [4]: 22%
H1L1:H1L2 normalized median ratio [5]: 18%
H1L1:H1L2 normalized median ratio [6]: 84%
H1L1:H1L2 normalized median scalar value ln(r1/f1) [6]: 1.63
H1L1:H1L2 normalized median ratio [7]: 85%
H1L1:H1L2 normalized median scalar value ln(r1/f1) [7]: 1.74
H1L1:H1L2 normalized median ratio [8]: 69%
H1L1:H1L2 normalized median scalar value ln(r1/f1) [8]: 0.79
H1L1:H1L2 normalized median ratio [9]: 76%
H1L1:H1L2 normalized median scalar value ln(r1/f1) [9]: 1.14
H1L1:H1L2 normalized median ratio [10]: 89%
H1L1:H1L2 normalized median scalar value ln(r1/f1) [10]: 2.05
H1L1:H1L2 normalized median ratio [11]: 11%
H1L1:H1L2 normalized median ratio [12]: 16%
H1L1:H1L2 normalized median ratio [13]: 78%
H1L1:H1L2 normalized median scalar value ln(r1/f1) [13]: 1.28
H1L1:H1L2 normalized median ratio [14]: 82%
H1L1:H1L2 normalized median scalar value ln(r1/f1) [14]: 1.55
H1L1:H1L2 normalized median ratio [15]: 31%
H1L1:H1L2 normalized median ratio [16]: 89%
H1L1:H1L2 normalized median scalar value ln(r1/f1) [16]: 2.08
H1L1:H1L2 normalized median ratio [17]: 87%
H1L1:H1L2 normalized median scalar value ln(r1/f1) [17]: 1.9
H1L1:H1L2 normalized median ratio [18]: 13%
H1L1:H1L2 normalized median ratio [19]: 24%
H1L1:H1L2 normalized median ratio [20]: 15%

D3H44 Fab heavy chain L143K with C-terminal ABD2-His6 tag
H2L2:H2L1 normalized median ratio [21]: 8%
H2L2:H2L1 normalized median ratio [22]: 92%
H2L2:H2L1 normalized median ratio [23]: 8%
H2L2:H2L1 normalized median ratio [24]: 92%

D3H44 Fab heavy chain Q179K with C-terminal ABD2-His6 tag
H2L2:H2L1 normalized median ratio [25]: 90%
H2L2:H2L1 normalized median ratio [3]: 87%
H2L2:H2L1 normalized median ratio [26]: 91%
H2L2:H2L1 normalized median ratio [27]: 96%
H2L2:H2L1 normalized median ratio [6]: 4%
H2L2:H2L1 normalized median ratio [7]: 4%
H2L2:H2L1 normalized median ratio [28]: 4%
H2L2:H2L1 normalized median ratio [9]: 4%
H2L2:H2L1 normalized median ratio [10]: 13%
H2L2:H2L1 normalized median ratio [12]: 96%
H2L2:H2L1 normalized median ratio [29]: 9%
H2L2:H2L1 normalized median ratio [1]: 94%
H2L2:H2L1 normalized median ratio [30]: 10%
H2L2:H2L1 normalized median ratio [31]: 8%
H2L2:H2L1 normalized median ratio [32]: 8%
H2L2:H2L1 normalized median ratio [2]: 6%
H2L2:H2L1 normalized median ratio [33]: 92%
H2L2:H2L1 normalized median ratio [19]: 96%
H2L2:H2L1 normalized median ratio [34]: 92%
H2L2:H2L1 normalized median ratio [20]: 96%
